The DeepSol protein solubility set

Experiment: soluble on expression in E. coli; label from the status in PepcDB or PDB records

Sequence	soluble on expression in E. coli
MSLDFAMLPPEVNSTRMYSGPGAGSLWAAAAAWDQVSAELQSAAETYRSVIASLTGWQWLGPSSVRMGAAVTPYVEWLTTTAAQARQTATQITAAATGFEQAFAMTVPPPAIMANRAQVLSLIATNFFGQNTAAIAALETQYAEMWEQDATAMYDYAATSAAARTLTPFTSPQQDTNSAGLPAQSAEVSRATANAGAADGNWLGNLLEEIGILLLPIAPELTPFFLEAGEIVNAIPFPSIVGDEFCLLDGLLAWYATIGSINNINSMGTGIIGAEKNLGILPELGSAAAAAAPPPADIAPAFLAPLTSMAKSLSDGALRGPGEVSAAMRGAGTIGQMSVPPAWKAPAVTTVRAFDATPMTTLPGGDAPAAGVPGLPGMPASGAGRAGVVPRYGVRLTVMTRPLSGEGHHHHHH	soluble
MSLDFNTLAQNFTQFYYNQFDTDRSQLGNLYRNESMLTFETSQLQGAKDIVEKLVSLPFQKVQHRITTLDAQPASPYGDVLVMITGDLLIDEEQNPQRFSQVFHLIPDGNSYYVFNDIFRLNYSA	soluble
MSLDFSIPEEYMMLKESMREFVKRELMPLEKTLLERELSLWTEPGHLIPDEDHKRLMQKTKELGFWGLEVDEEFGGQGLGMLAKTLVVEELSKSLVGFSNHGFTLPPDAPNLYYLHECCGPRQREKYFVPYCNGDVDSAMACTEPGAGSDVSGLKTKAVKKGDKWVINGTKSFISKCDYDNVFFIVIAVTDPSASTKDRFTAFLIDREHPGVRIGKEIPVIGPMPTWDLILEDVEVDDDAILGDVGKAFIPLQNRFGVRRIELASSCTGMAERLIQMMIDQANTRITFGQPLAERGTIQNWIADSTMELEQVRWLLYYAAWKSDQGHKDLRIEGASVKVAATEMLTRVADRAIQIHGGLGVSHELGIEYVARHVRLWRIVEGPSEVHRWLVARQLLKEGHHHHHH	not soluble
MSLDGKVAVLTGTKKIEVKKLPVPEINDDEMLVKVEGCGVCGTDVFEYKSDPFNYIPVNLGHEGTGEIVKMGKNVKNDWTGKTLKIGDKIVCGPAANGDIYGLMGGEKHYFNGWLANYMVINPNSVVFNVSDMPLDLRILIEPAAVSCHAVAKSKEIYTFKHSSSVVVQGVGPIGLMVIAQMKTLGVRHIIAVDGNASRLELAKKIGATATVNIDDGDSVAAVKELTDGKGANFVFQCTGSTKGASTAWKFLTDHGGICEVGFFVDNGEATYNPHFDVCMPETKITGSWAYVPEDWVEATEFLRETKDEGLDMTQLITNVYPLDQMNEAMAKNMSGTGVKIVYKNNEGHHHHHH	soluble
MSLDLGSNSFHMVIARVVDGAMQIIGRLKQRVHLADGLGPDNMLSEEAMTRGLNCLSLFAERLQGFSPASVCIVGTHTLRQALNATDFLKRAEKVIPYPIEIISGNEEARLIFMGVEHTQPEKGRKLVIDIGGGSTELVIGENFEPILVESRRMGCVSFAQLYFPGGVINKENFQRARMAAAQKLETLTWQFRIQGWNVAMGASGTIKAAHEVLMEMGEKDGIITPERLEKLVKEVLRHRNFASLSLPGLSEERKTVFVPGLAILCGVFDALAIRELRLSDGALREGVLYEMEGRFRHQDVRSRTASSLANQYHIDSEQARRVLDTTMQMYEQWREQQPKLAHPQLEALLRWAAMLHEVGLNINHSGLHRHSAYILQNSDLPGFNQEQQLMMATLVRYHRKAIKLDDLPRFTLFKKKQFLPLIQLLRLGVLLNNQRQATTTPPTLTLITDDSHWTLRFPHDWFSQNALVLLDLEKEQEYWEGVAGWRLKIEEESTPEIAAEGHHHHHH	not soluble
MSLDLHTHTIYSDGIGSVIDNVNMAEIRGLRLLGISDHIHFFTPSKFLKYVNEVRSIGREAEIPVLVGIEANITENGPDVTEDFAKHLDYVIASVHDWFGEGEVYRYIERIKLALMDENVTIIGHFGNVFPWIGYPTEEQIKEVLDVAEEYGKAFEISSRYRVPDLEFVKMCIKRGIKLVFASDAHRPEDVGRVDWSIKVFEKAGGKKEDLLFSEEGHHHHHH	soluble
MSLDLKEIVQAGAFDLHIHTTASDGEYSPTAIVKKAKEIGLRTIAITDHDTLDGIEEAVIAGKRHGINVIPAIELTTKYKGTNVDILGYNVKASEKLQAILVQLKKHREGRAMQIIEKFNDIGFTITLDEVKQFSEDGVIARPHIAKAIVKKGYVLDYQTVFDEYLADGKPCAIDKMILTPEEGIKLIHEAGGKAILAHPVYLEDTLVRELLALDFDGIEVWHRNHDETDQEKYKMLATEFALIKTGGSDFHTDEHSLGQFGWKADEEGHHHHHH	soluble
MSLDLLISNCTVFGREGSDAIGINEGRIAFIGIDRDLRAKKRIDLSGKIVFPGFIDSHAHLLSTGLEDIRLNLYHTKSKEEVVERIAEYSKGKEKVIAYRWDESMWKPQSSYLTSSDINGIPVPVVAFRRDGHMAVANQKAMDVIGTTRKEGIFKEDDIELLEPLVKPNEAEIRDALNTAANRAISLGIVAVRDMVDISTYNEYKNIKTPLKIYKVLYSDSIFDKFGTSSQNDWGIKAFLDGSLGSRTAAHKGWDASNLKMDESKFENFAKQIWMHNLPLAVHAIGEVAVETAAKVFYRNAGRNRNSIEHFELVDDDVLDYITKTTIISSQPNFLEWAGKGGMYEDRVGGEWLYKNNPFRWMIDRGIHLAFGSDSMPIGPMYGIYYAVNSEYQRQKITLEEAVRCYSEGGSYLLGTEGYMGMLRVGYSADMAVFDEKLLKDLRGIKAAKPEITIINGKIYTNEGHHHHHH	not soluble
MSLDLMTKLKIYNGEEIVEKASIKKIEREELEEECRQKEGMTGVSTRFIIKAINNAICESNCSCINPIDVINSLITAVKEKDLCEEVEDKYISFLEDVVRKEYNKILYKEITKFFIESFNSQGEALFNNYLDHAEAYVNKVYLKDNITGENLDPDEEFMREIEEEIGVTENSSKGFRKDVVAYILYLIRKGEEINCNCYKPLKEAIERKLISSSREISRIINPSKIRNKAQDEKYKFIVEKLKNNGYCDTCAFYTLRYAANNFWRDEGHHHHHH	not soluble
MSLDLSVDRSSPVPLYFQLSQQLEAAIEHGALTPGSLLGNEIELAARLGLSRPTVRQAIQSLVDKGLLVRRRGVGTQVVHSKVRRPLELSSLYDDLEAAGQRPATKVLVNTVVPATAEIAAALGVAEDSEVHRIERLRLTHGEPMAYLCNYLPPGLVDLDTGQLEATGLYRLMRAAGITLHSARQSIGARAATSGEAERLGEDAGAPLLTMERTTFDDTGRAVEFGTHTYRPSRYSFEFQLLVRP	soluble
MSLDNKGDIWYDLISAVHKSIRGSDPDAALYWAARMISAGCDPLYIARRLLAIASEDVGNADPRGMQVALAAWDCFTRVGPAEGERAIAQAIVYLACAPKSNAVYTAWKQALSDAHNLPEFEVPPHLRNAPTRLMKDLGYGEEYRYAHDEPGAYAAGECYFPPEMSGTRYYQPTPRGLETKIAEKLAYLADLNAKSPQKEGHHHHHH	soluble
MSLDQVDKALTPKEKAETGVPFYASNQAGIITAQQTYCYIASFDIQTESRQILQDLFVKWTKFADLTTSGGVLRDVDNDMLPPNDTGEADGLGISNFTVTLGYGPTFFEKDGKDRFGVKAKKPKYLEKIPHMAHDSLDEAYSDGDLCIQVCADDQQVAFHGIRNFIRLASGVAVVRWIEEGFLSAPKNETPRNLFGFKDGTANVDHDSNKGYKDVVWAEKDEPEWMRNGSYLGYRKIQMLIEIWDRSSLLDQEDTFGRKKASGAPYHKKHEHDKVDPSKLPADSHVRLAKDTKQQMHRRAYSYTNGIDKSTGTIDAGLLFICFTQNPAKQFLPMLSIMGKMDKLNEYTVPIGSAMFACQGGLAPGEIFGEKLLEGHHHHHH	soluble
